From publication PMC3688583, “Eubacterial SpoVG Homologs Constitute a New Family of Site-Specific DNA-Binding Proteins”

Experiments:
[1] = target: T1, SpoVGSa (Staphylococcus aureus) (UniProt Q7A7B5); experiment: competition; details: 50 mM Tris-HCl pH 7.5, 1 mM DTT, 150 nM EDTA, 50 ng/ml poly dI-dC, phosphatase and protease inhibitors; about 20 C; protein stocks in 50 mM Tris-HCl, 25 mM …
T1 sequence: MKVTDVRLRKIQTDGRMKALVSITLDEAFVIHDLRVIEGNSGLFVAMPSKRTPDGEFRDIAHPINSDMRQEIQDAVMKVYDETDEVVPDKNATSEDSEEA

[2] = target: T1, SpoVGSa (Staphylococcus aureus); experiment: EMSA; details: 50 mM Tris-HCl pH 7.5, 1 mM DTT, 150 nM EDTA, 50 ng/ml poly dI-dC, phosphatase and protease inhibitors; about 20 C; protein stocks in 50 mM Tris-HCl, 25 mM …
[3] = target: T2, SpoVGBb (Borrelia burgdorferi B31) (UniProt O51726); experiment: EMSA; details: 50 mM Tris-HCl pH 7.5, 1 mM DTT, 150 nM EDTA, 50 ng/ml poly dI-dC, phosphatase and protease inhibitors; about 20 C; protein stocks in 50 mM Tris-HCl, 25 mM …
T2 sequence: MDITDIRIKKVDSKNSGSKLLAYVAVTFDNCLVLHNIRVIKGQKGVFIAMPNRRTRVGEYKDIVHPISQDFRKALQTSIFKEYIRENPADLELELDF

SpoVGSa K50A = SpoVGSa K50A (Staphylococcus aureus, UniProt Q7A7B5 1-100, K50A); experiment: EMSA; 1.5 uM protein; 50 mM Tris-HCl pH 7.5, 1 mM DTT, 150 nM EDTA, 50 ng/ml poly dI-dC, phosphatase and protease inhibitors; about 20 C; protein stocks in 50 mM Tris-HCl, 25 mM KCl, 10% glycerol, 0.01% Tween-20; details: protein: recombinant; tags: 6xHis (pET101); label: 5' biotin (strand 1); strands not exact complements (S12 has 3 extra nt)
SpoVGSa R51A = SpoVGSa R51A (Staphylococcus aureus, UniProt Q7A7B5 1-100, R51A); experiment: as above; details: protein: recombinant; tags: 6xHis (pET101); label: 5' biotin (strand 1); strands not exact complements (S12 has 3 extra nt)
SpoVGSa K50A-R51A = SpoVGSa K50A-R51A (Staphylococcus aureus, UniProt Q7A7B5 1-100, K50A;R51A); experiment: as above; details: protein: recombinant; tags: 6xHis (pET101); label: 5' biotin (strand 1); strands not exact complements (S12 has 3 extra nt)
SpoVGBb-Sa = SpoVGBb-Sa (Borrelia burgdorferi B31, UniProt O51726 1-97, Q69S;F71M;K73Q;A74E); experiment: EMSA; 200 nM protein; 50 mM Tris-HCl pH 7.5, 1 mM DTT, 150 nM EDTA, 50 ng/ml poly dI-dC, phosphatase and protease inhibitors; about 20 C; protein stocks in 50 mM Tris-HCl, 25 mM KCl, 10% glycerol, 0.01% Tween-20; details: protein: recombinant; tags: 6xHis (pET101); label: 5' biotin (strand 1); strands not exact complements (S12 has 3 extra nt)
SpoVGBb = target: T3, SpoVGBb (Borrelia burgdorferi B31, UniProt O51726 1-97); experiment: as above; details: protein: recombinant; tags: 6xHis (pET101); label: 5' biotin (strand 1); strands not exact complements (S12 has 3 extra nt)
T3 sequence: T2 sequence

SpoVGSa [4] = target: T4, SpoVGSa (Staphylococcus aureus, UniProt Q7A7B5 1-100); experiment: EMSA; 50 mM Tris-HCl pH 7.5, 1 mM DTT, 150 nM EDTA, 50 ng/ml poly dI-dC, phosphatase and protease inhibitors; about 20 C; protein stocks in 50 mM Tris-HCl, 25 mM KCl, 10% glycerol, 0.01% Tween-20; details: protein: recombinant; tags: 6xHis (pET101); label: 5' biotin (strand 1); strands not exact complements (S12 has 3 extra nt)
T4 sequence: T1 sequence

SpoVGSa [5] = target: T4, SpoVGSa; experiment: competition; 25- and 50-fold excess vs cap41; 50 mM Tris-HCl pH 7.5, 1 mM DTT, 150 nM EDTA, 50 ng/ml poly dI-dC, phosphatase and protease inhibitors; about 20 C; protein stocks in 50 mM Tris-HCl, 25 mM KCl, 10% glycerol, 0.01% Tween-20; details: protein: recombinant; tags: 6xHis (pET101); blunt
SpoVGSa [6] = target: T4, SpoVGSa; experiment: competition; 10- to 50-fold excess vs cap41; 50 mM Tris-HCl pH 7.5, 1 mM DTT, 150 nM EDTA, 50 ng/ml poly dI-dC, phosphatase and protease inhibitors; about 20 C; protein stocks in 50 mM Tris-HCl, 25 mM KCl, 10% glycerol, 0.01% Tween-20; details: protein: recombinant; tags: 6xHis (pET101); blunt
SpoVGSa [7] = target: T4, SpoVGSa; experiment: competition; 50-fold excess vs cap41; 50 mM Tris-HCl pH 7.5, 1 mM DTT, 150 nM EDTA, 50 ng/ml poly dI-dC, phosphatase and protease inhibitors; about 20 C; protein stocks in 50 mM Tris-HCl, 25 mM KCl, 10% glycerol, 0.01% Tween-20; details: protein: recombinant; tags: 6xHis (pET101)

“GGTGAATACTTATCATTTAAGTCCTTTGACACCTCATCTAAAATTCTAGGACTTTTAACAATTTCTTTATACGTATTTACAAGTTGAATATTACTTTGAACCTCTTGCGCCATAAACTGAGGATTGTCACCCTTAGTTTGATTCACTAAAATTTGAGTATTAGCTTGATATTTAGGTGATAAGACGAAAAATGTAACAATAGCGC (double strand) [cap5A ORF DNA]” was tested, and the binding [1] was “binds more weakly”.

cap5 5' non-coding DNA was tested, and the Kd [2] was 316 nM.

With “CCTCCTGAATATTTTAAGTTTATCAAAACTTTTTAGGGACACTATTTTTTGAAAAAGTGCTCCTTACTCAAATAATATATAAATTATTAGTATATGTATATAGTTTTTTAAGTATTTTTAGTTTTTTTTAAATAAATATATTGAATATACCCATATATTTTTAATTAACCATTCATTTTTGTAATATAAATGTGTATACTAAAATTAAATTAAATACATAAAGG (double strand) [esxA 5' non-coding DNA]” the binding [1] was “binds”.

With “GTTAATAGTTTGCCTAAGGAAAAAAGCGATATAAGTAGTACGACGGGGAAACCAGATAGTACAGGTTCTGTTGGT (double strand) [vlsE F27B-R10]” the binding [3] was “binds”.

B1: cap41 (dsDNA)
DNA 1: GAGTATAATTATTTTTAATTTACATATAAATAAAAAGGCGAAAATAATGCGGTTTAAAAGTAATTAAT
DNA 2: ATTAATTACTTTTAAACCGCATTATTTTCGCCTTTTTATTTATATGTAAATTAAAAATAATTAATATACTC
B1: no binding (SpoVGSa K50A); no binding (SpoVGSa R51A); no binding (SpoVGSa K50A-R51A). B1: binds (SpoVGBb-Sa); no binding (SpoVGBb); binds (SpoVGSa [4]).

B2: mutant competitor A (dsDNA)
DNA 1: GAGTAGCCGCCTTTTCGCCGGACATATA
DNA 2: TATATGTCCGGCGAAAAGGCGGCTACTC
In the case of B2, the binding signal (SpoVGSa [5]) is reported as > 5 fold lower affinity than competitor A.

B3: competitor A (dsDNA)
DNA 1: GAGTATAATTATTTTTAATTTACATATA
DNA 2: TATATGTAAATTAAAAATAATTATACTC
B3: binds (SpoVGSa [6]).

B4: competitor C (dsDNA)
DNA 1: AAAATAATGCGGTTTAAAAGTAATTAAT
DNA 2: ATTAATTACTTTTAAACCGCATTATTTT
B4: no binding (SpoVGSa [7]).

B5: competitor B (dsDNA)
DNA 1: TACATATAAATAAAAAGGCGAAAATAAT
DNA 2: ATTATTTTCGCCTTTTTATTTATATGTA
B5: no binding (SpoVGSa [7]).
